Results as given in patent US20230183713A1, “SITE-SPECIFIC RECOMBINASES FOR EFFICIENT AND SPECIFIC GENOME EDITING” (TECHNISCHE UNIVERSITÄt DRESDEN, published 2023).
Positions count from the first letter of the chain named. Names may count otherwise.

Experiments:
[1] = target: T1, Cre recombinase monomer with Q311R mutation
T1 chain: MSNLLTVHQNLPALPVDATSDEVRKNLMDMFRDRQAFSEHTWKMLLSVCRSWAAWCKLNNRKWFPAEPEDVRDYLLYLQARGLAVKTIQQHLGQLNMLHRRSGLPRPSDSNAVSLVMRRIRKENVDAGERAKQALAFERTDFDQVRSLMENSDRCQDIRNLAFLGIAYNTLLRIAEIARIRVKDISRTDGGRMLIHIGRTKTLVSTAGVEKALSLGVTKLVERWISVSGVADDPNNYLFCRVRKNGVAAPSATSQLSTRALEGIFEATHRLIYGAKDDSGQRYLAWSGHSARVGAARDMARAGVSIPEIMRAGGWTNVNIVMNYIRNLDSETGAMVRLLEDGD

[2] = target: T2, Cre recombinase monomer with Y324A mutation
T2 chain: T1 chain with R311Q, Y324A

[3] = target: T3, Cre recombinase monomer with Y324K mutation
T3 chain: T1 chain with R311Q, Y324K

[4] = target: T4, Cre recombinase monomer with E176H mutation
T4 chain: T1 chain with E176H, R311Q

[5] = target: T5, Cre recombinase monomer with E176M mutation
T5 chain: T1 chain with E176M, R311Q

[6] = target: T6, Cre recombinase monomer with E176V mutation
T6 chain: T1 chain with E176V, R311Q

[7] = target: T7, Cre recombinase monomer with E176Y mutation
T7 chain: T1 chain with E176Y, R311Q

[8] = target: T8, Cre recombinase monomer with E176I mutation
T8 chain: T1 chain with E176I, R311Q

[9] = target: T9, Cre recombinase monomer with Y324I mutation
T9 chain: T1 chain with R311Q, Y324I

[10] = target: T10, Cre recombinase monomer with W315C mutation
T10 chain: T1 chain with R311Q, W315C

[11] = target: T11, Cre recombinase monomer with W315L mutation
T11 chain: T1 chain with R311Q, W315L

B1: Cre recombinase monomer with K201N mutation (protein)
chain: T1 chain with K201N, R311Q
[1]
  Median dimer activity (recombination on loxP): 95%
[2]
  Median dimer activity (recombination on loxP): 26%

B2: Cre recombinase monomer with R292T mutation (protein)
chain: T1 chain with R292T, R311Q
[1]
  Median dimer activity (recombination on loxP): 94%
[3]
  Median dimer activity (recombination on loxP): 55%

B3: Cre recombinase monomer with R173M mutation (protein)
chain: T1 chain with R173M, R311Q
[4]
  Median dimer activity (recombination on loxP): 75%
[5]
  Median dimer activity (recombination on loxP): 39%
[6]
  Median dimer activity (recombination on loxP): 75%
[7]
  Median dimer activity (recombination on loxP): 27%
[1]
  Median dimer activity (recombination on loxP): 96%

B4: Cre recombinase monomer with R173W mutation (protein)
chain: T1 chain with R173W, R311Q
[4]
  Median dimer activity (recombination on loxP): 57%
[7]
  Median dimer activity (recombination on loxP): 30%
[1]
  Median dimer activity (recombination on loxP): 95%

B5: Cre recombinase monomer with R173I mutation (protein)
chain: T1 chain with R173I, R311Q
[4]
  Median dimer activity (recombination on loxP): 42%
[8]
  Median dimer activity (recombination on loxP): 40%
[6]
  Median dimer activity (recombination on loxP): 44%
[1]
  Median dimer activity (recombination on loxP): 93%

B6: Cre recombinase monomer with R292E mutation (protein)
chain: T1 chain with R292E, R311Q
[1]
  Median dimer activity (recombination on loxP): 50%
[9]
  Median dimer activity (recombination on loxP): 70%

B7: Cre recombinase monomer with H289W mutation (protein)
chain: T1 chain with H289W, R311Q
[1]
  Median dimer activity (recombination on loxP): 95%
[10]
  Median dimer activity (recombination on loxP): 87%

B8: Cre recombinase monomer with H289E mutation (protein)
chain: T1 chain with H289E, R311Q
[1]
  Median dimer activity (recombination on loxP): 94%
[11]
  Median dimer activity (recombination on loxP): 33%

B9: Cre recombinase monomer with W315K mutation (protein)
chain: T1 chain with R311Q, W315K
[3]
  Median dimer activity (recombination on loxP): 99%
